Holding throughout (assay): AVEXIS screen signal:noise (double-corrected)
Assay [1] concerns the target ADP158.
Assay [2] deals with T1, ADP103.
T1 chain: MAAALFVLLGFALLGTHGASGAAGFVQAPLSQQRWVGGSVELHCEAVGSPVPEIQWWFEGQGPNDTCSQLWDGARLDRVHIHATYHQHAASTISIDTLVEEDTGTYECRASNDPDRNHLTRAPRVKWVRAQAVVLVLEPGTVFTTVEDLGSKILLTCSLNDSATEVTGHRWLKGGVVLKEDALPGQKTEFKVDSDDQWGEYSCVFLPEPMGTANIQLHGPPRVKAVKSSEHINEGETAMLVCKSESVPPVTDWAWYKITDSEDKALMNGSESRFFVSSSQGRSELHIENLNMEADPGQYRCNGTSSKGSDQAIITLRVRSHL

Assay [3] addresses T2, ADP144.
T2 chain: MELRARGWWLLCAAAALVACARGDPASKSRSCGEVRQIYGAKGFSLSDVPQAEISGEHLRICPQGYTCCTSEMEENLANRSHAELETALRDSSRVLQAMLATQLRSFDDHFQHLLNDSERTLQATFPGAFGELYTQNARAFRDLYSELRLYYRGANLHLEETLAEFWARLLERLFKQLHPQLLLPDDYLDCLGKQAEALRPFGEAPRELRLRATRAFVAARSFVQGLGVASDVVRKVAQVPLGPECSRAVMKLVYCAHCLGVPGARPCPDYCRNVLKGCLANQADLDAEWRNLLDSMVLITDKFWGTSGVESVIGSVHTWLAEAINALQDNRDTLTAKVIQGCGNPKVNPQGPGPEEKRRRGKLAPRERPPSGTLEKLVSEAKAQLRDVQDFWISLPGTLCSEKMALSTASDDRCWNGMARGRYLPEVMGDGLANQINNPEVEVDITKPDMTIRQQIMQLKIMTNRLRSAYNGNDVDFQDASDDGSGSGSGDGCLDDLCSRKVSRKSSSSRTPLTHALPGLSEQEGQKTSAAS

Assay [4] addresses ADP390.
Assay [5] deals with ADP323.
The target in assay [6] is T3, ADP315.
T3 chain: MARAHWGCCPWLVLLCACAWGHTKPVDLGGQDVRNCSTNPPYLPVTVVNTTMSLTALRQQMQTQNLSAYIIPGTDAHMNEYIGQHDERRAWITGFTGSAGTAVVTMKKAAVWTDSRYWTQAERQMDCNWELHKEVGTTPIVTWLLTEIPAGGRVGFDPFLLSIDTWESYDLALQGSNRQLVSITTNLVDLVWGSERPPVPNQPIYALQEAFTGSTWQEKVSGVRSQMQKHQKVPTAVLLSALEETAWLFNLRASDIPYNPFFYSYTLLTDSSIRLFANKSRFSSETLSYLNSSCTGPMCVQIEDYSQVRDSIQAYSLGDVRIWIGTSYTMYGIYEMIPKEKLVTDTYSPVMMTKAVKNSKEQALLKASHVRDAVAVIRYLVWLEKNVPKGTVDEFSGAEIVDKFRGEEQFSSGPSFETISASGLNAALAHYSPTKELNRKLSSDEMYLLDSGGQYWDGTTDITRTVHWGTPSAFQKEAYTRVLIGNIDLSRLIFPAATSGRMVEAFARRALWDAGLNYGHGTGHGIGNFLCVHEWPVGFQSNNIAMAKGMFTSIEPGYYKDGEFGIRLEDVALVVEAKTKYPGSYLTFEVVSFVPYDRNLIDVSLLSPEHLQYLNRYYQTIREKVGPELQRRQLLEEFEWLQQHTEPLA

Assay [7] has as its target T4, ADP366.
T4 chain: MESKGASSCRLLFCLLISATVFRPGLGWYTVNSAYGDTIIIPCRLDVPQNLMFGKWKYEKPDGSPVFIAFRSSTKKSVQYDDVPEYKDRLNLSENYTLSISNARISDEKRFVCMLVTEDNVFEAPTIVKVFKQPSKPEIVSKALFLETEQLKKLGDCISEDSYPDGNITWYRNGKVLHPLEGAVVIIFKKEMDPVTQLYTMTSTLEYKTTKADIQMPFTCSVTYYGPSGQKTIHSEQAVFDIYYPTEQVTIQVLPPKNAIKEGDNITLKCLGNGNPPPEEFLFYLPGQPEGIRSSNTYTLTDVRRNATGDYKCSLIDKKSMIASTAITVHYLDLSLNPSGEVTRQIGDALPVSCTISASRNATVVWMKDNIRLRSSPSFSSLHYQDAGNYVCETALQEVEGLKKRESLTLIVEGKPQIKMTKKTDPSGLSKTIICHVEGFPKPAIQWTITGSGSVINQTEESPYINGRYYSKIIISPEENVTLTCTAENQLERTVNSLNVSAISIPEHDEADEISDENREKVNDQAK

The target in assay [8] is T5, ADP368.
T5 chain: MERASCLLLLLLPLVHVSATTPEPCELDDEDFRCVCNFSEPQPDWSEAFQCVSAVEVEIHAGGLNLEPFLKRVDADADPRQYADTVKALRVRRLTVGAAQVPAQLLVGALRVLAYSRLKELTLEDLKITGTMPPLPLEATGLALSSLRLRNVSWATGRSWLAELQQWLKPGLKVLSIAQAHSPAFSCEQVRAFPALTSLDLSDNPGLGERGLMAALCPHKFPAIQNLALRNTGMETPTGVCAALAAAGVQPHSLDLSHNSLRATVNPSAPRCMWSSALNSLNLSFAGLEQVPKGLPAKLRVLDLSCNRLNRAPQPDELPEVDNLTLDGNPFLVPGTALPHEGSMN

B1: ADP167 (protein)
chain: EFKRKQKVEINSLQTNKNNDNIREEKIKGDVESQPDVDGDTCVIFSSSEGNSRNCWCPRGYILCSEEDVLDVQGKLNEIKNKHERSLVTPLWMKRLCDNSNDVGFKSMSVVIDYELAVLCKDGSNKDYADFEIIGASGYITGEEMIEEQKRNPWYVPRKCTVNNFYLCRKVENDNVNCAYTPWSDWSACKNNAQKRYRKVRRSNQNNENFCLWNDKIVPRNIMEQTRSC
modifications: bait human Fc-tagged dimer; N-glycosylation sequons mutated in Plasmodium baits
The molecule B1 returned a binding score in assay [1] of 19.1.

B2: ADP180 (protein)
chain: RGNQISKCVFYDKRNKDLKQVFYVPTNDVNMYKETIRKLLSREISLLEEPLNENSDSHNMANKKNVANFEEIKKNDENNNRKRKEMEEKLKYIEKYRNYAKGVLKNVEFKCENVDDLKSKVKCNLCVYTEIVNNKHIRQGQIIQIFMNECMYGFYYYDNINQYTQNNEYNNKALKDYNSAQKLDDIYFNIAKDISEGNVNGINFFKQQSSKYHPVCYVTE
modifications: bait human Fc-tagged dimer; N-glycosylation sequons mutated in Plasmodium baits
In the case of B2, the binding score in assay [2] was determined as 9.97; in assay [3], 20.

B3: ADP253 (protein)
chain: ANAFYVDNGQEMLIKEKEHYSSDSEHHKEESASIGNLNVFFPAENYHFSTYMGFDRRSFLPSNEIELEKMIGANFANEVKNYCSRQNVAQKIGDYLNIAFEYSRALEELRSEMILDFNKRKHLTNNADDTILHMIENAEKRKNDPNYKEAYENKDYANNANIFMNEYSNPLSTKYNKILKEYLCHLFVNNPGTKPLERLYYNSLALGELVEPIRNKFKSLASSTIDFNYEIHMASASNIYLLAHFLVLSLAYLSYNEYFTTGTKSFYSLPTILTANSDNSFFMLNEMCNIHYNPNKNFKKDITFIPIESRPKRTTTFYGERRLTCDLLELVLNAIMLININEINNVFSNNNVDGYENSLSFSHNAIRIFSKVCPKINNDNVLKCEFEESSLYNPKIIKNDASEKSSQKNLKKAFDLLRTYAEIEGHSAEGSTSPYYVSLILDDMKYNDFYKYTLWYEPRELIYGDIRGMQMKKKKKTKYIYNDFMKKSTQLKKKLIKNDLKYNLKSKGLVFLYAMIDKYGSILNKAQKAKVQFLNSASSIRYYLYLNKVIFKSAKTYLDIMKRVLEELQTSTNTPLKFLVRGNYIENINNIARNDNMFYANLFVLTALSRRDPVKDYYNDKRKMLSATLAEKFANSASMLIPHKLRKLVVSMKKGLLKKKLLTSLAKVKLLQHIPAHMLENIASSIRFTTHTIATMQIIQNAKYMSKHNFAQYDSKGMLARQIFTKGGFAEYADNLMAKWFSKGFEEYKREQIENFKMENSIDSELKDSEREDENDASEESAKKKLQDLQLEEREKMKKENSLLFNQADKWDQFINKELVRALGLWLEFNDNPANAASFVYKVVEDSKHLLENNIDNNIIFSRTVKPTKQTAFRRFFNKILSLGNMLLRKPSFRVEHALWFGATIDIKKAFILLEKVSELHKMLNNQDESWLINEAFIEIVDHVVDLSTYKHVREPFGVARNPGMMAINPKYAELSHENRLRELQNSMCADHCSSVWKVISSFALHHLKNPDSLHTYESKFSKNSFGNKIDDKDFVHNFKMILGGDAVLHYFDNLLPKTMKKDLKAMKYGVSLTSAYSLKLTKIIFSQMQLPYLSQMFYMQAPYFGHFIGKWQKKRQQSRLKEIMSFMTLGSLSAYTLFSAMDITQQAKDIGAGPVASCFTTRMSPPQQICLNSVVNAALSTSTQSAMKCVFSV
modifications: bait human Fc-tagged dimer; N-glycosylation sequons mutated in Plasmodium baits
In assay [4], B3 yielded a binding score of 7.2.

B4: ADP247 (protein)
chain: GIISGRINIAAEFHINIFVKDYFKKKKLTFVNFVSLCPKGFNIENNKCIPCPIGLYYSNSKSINQCIPCENYRKHSTTLYNSAKSKTECLCKPGYFLKDKRCVKCVAGFYKDQIGNFKCQGTCENTKMSIEVGAKNYEELKCTCKDGYFTEKKKKECIPCPFGNYCIYNPKVKYKADIIRCKNNKLTLHRGSKSPNDCLCSQGYYHDYKMDECELCNYDQYKSHISNDPCVPFISKSLVNQEYLINEPYFQYTNIYIKQTSNIIFAPKKGSKMFHEATLCETGYSYSMNKAICSICRYNNYCLGLDHSSIICPKNSITIKLKSVSALDCLCIKGYGRIIINTNQAFTISCIPCPYNTFQPHHSYGKCIPCPPHTFTKITGATSITECIPKMGYYNIAFEYIYEYSKQQMLNSIPHFIQYYHYFLKNQYEHFA
modifications: bait human Fc-tagged dimer; N-glycosylation sequons mutated in Plasmodium baits
With B4, the binding score stood at 5.73 in assay [5], 5.78 in assay [6], 5.26 in assay [7] and 5.45 in assay [8].

Source of the values: PMC11098746 (2024).
